Test results: patent US20260248947A1, “Methods of Treating Cancer Using Anti-HER2 Antibody-Drug Conjugates and HER2 Kinase Inhibitors” (Seagen Inc., priority 2023, published 2026)

Columns and labels:
[1] = tested on: HER2 cell surface protein levels; assay: qFACS analysis of cell-surface HER2 levels upon tucatinib treatment; format: cell-based, human; conditions: 100 nM tucatinib
Description: HER2 cell surface levels were determined by qFACS analysis. Briefly, cells were stained with an anti-HER2 antibody (R&D Systems, Inc.; #MAB1129) and Zombie Aqua (BioLegend, Inc.; #423101) for dead cell exclusion. Cells were fixed, and HER2 receptor copy number per cell was quantified using a QIFIKIT (Agilent Dako) per the manufacturer's protocol.
(§1) The internalization experiments were conducted by detecting an antibody-bound pH sensitive probe using automated time-lapse microscopy. Briefly, breast cancer cell lines SK-BR-3, BT-474, HCC-202, and EFM-192C and gastric cancer cell lines NCI-N87 and OE19 were seeded in 96-well flat clear-bottom black tissue culture-treated microplates (Coming, cat #3603). Cells were plated at 1.5×10^4-2.5×10^4 cells/200 μL/well in growth medium and allowed to adhere overnight at 37° C. Disitamab and isotype control antibody (human IgG) were labeled with IncuCyte Fabfluor-pH Red Antibody Labeling Reagent (Essen Bioscience, cat #4722) according to the manufacturer's protocol. Volumes of the test antibodies, Fabfluor reagent and medium required were calculated at 2× the final assay concentration, and the Fabfluor reagent was added at a molar ratio of 1:3 to the antibody. Antibody and Fabfluor were mixed gently and incubated at 37° C. for 15 minutes. Media containing Fabluor-labeled disitamab ([…] final concentration) with or without tucatinib (100 nM final concentration) was added to cells. The plates were arranged on microplate trays in the IncuCyte SX3 system (Essen Bioscience), and scans were acquired using the Standard protocol. Phase data and red channel data (acquisition time set to 400 ms) were collected, with 4 images per well every 30 minutes for the first 6 hours and every 2 hours after that for up to 72.5 hours with the objective set at 10×. Quantification of fluorescence signal intensity was performed using the IncuCyte software analysis tool. Cell surface HER2 density was quantified using qFACS analysis as described supra.

HER2 [2] = molecular target: T1, HER2 (Homo sapiens, UniProt P04626); assay: Internalization assay of Fabfluor-labeled disitamab compared to trastuzumab (IncuCyte); format: cell-based; parameters: endogenous in cells; host or cells: SK-BR-3, BT-474, HCC-202, EFM-192C, BT-483, CAMA-1, NCI-N87, OE19, RERF-GC-1B
Description: The internalization experiments were conducted by detecting an antibody-bound pH sensitive probe using automated time-lapse microscopy. Briefly, breast cancer cell lines SK-BR-3, BT-474, HCC-202, EFM-192C, BT-483, and CAMA-1 and gastric cancer cell lines NCI-N87, OE19, and RERF-GC-1B were seeded in 96-well flat clear-bottom black tissue culture-treated microplates (Corning, cat #3603). Cells were plated at 1.5×10^4-2.5×10^4 cells/200 μL/well in growth medium and allowed to adhere overnight at 37° C. Disitamab, trastuzumab, and isotype control antibody (human IgG) were labeled with IncuCyte Fabfluor-pH Red Antibody Labeling Reagent (Essen Bioscience, cat #4722) according to the manufacturer's protocol. Volumes of the test antibodies, Fabfluor reagent and medium required were calculated at 2× the final assay concentration, and the Fabfluor reagent was added at a molar ratio of 1:3 to the antibody. Fabfluor dye fluoresces only upon exposure to an acidified compartment, namely endocytic vesicles and lysosomes, signifying internalization and intracellular processing of the ADC. Antibody and Fabfluor were mixed gently and incubated at 37° C. for 15 minutes. Media containing Fabfluor-labeled disitamab or trastuzumab ([…] final concentration) was added to cells. The plates were arranged on microplate trays in the IncuCyte SX3 system (Essen Bioscience), and scans were acquired using the Standard protocol. Phase data and red channel data (acquisition time set to 400 ms) were collected, with 4 images per well every 30 minutes for the first 6 hours and every 2 hours after that for up to 40 hours with the objective set at 10×. Quantification of fluorescence signal intensity was performed using the IncuCyte software analysis tool.

HER2 [3] = molecular target: T1, HER2; assay: Internalization assay of Fabfluor-labeled disitamab with or without tucatinib (IncuCyte); format: cell-based; parameters: endogenous in cells; host or cells: SK-BR-3, BT-474, HCC-202, EFM-192C, NCI-N87, OE19; conditions: 100 nM tucatinib
Description: as §1
The analysis was refined and tuned per cell line utilizing phase area confluence and manual image selection for preview and training of the algorithm. Upon completion of the analysis, red object integrated intensity (RCU×μm^2/image) data were graphed using GraphPad Prism. The experiment was performed in duplicate (technical replicates) for two biological replicates.

[4] = tested on: HER2+ locally advanced or metastatic breast cancer (LA/mBC); conditions: subjects that progressed following taxane plus trastuzumab treatment; cited from earlier work

For `Cc1cc(Nc2ncnc3ccc(NC4=NC(C)(C)CO4)cc23)ccc1Oc1ccn2ncnc2c1` [tucatinib, Tucatinib], the “cell-surface HER2 levels over time compared with untreated cells” value ([1]; BT-474) was “increase”, the “cell-surface HER2 levels over time compared with untreated cells” value ([1]; BT-483) was “increase” and the “cell-surface HER2 levels over time compared with untreated cells” value ([1]; CAMA-1) was “increase”. For the same compound, the “cell-surface HER2 levels over time compared with untreated cells” value ([1]; EFM-192C) was “increase”, the “cell-surface HER2 levels over time compared with untreated cells” value ([1]; HCC-202) was “increase” and the “cell-surface HER2 levels over time compared with untreated cells” value ([1]; NCI-N87) was “increase”. For the same compound, the “cell-surface HER2 levels over time compared with untreated cells” value ([1]; OE19) was “increase”, the “cell-surface HER2 levels over time compared with untreated cells” value ([1]; RERF-GC-1B) was “increase” and the “cell-surface HER2 levels over time compared with untreated cells” value ([1]; SK-BR-3) was “increase”.
In the case of disitamab, the “disitamab internalization as compared to trastuzumab” value (HER2 [2]; BT-474) is reported as “Increased”, the “disitamab internalization as compared to trastuzumab” value (HER2 [2]; BT-483) is reported as “Increased” and the “disitamab internalization as compared to trastuzumab” value (HER2 [2]; CAMA-1) is reported as “Increased”. For the same compound, the “disitamab internalization as compared to trastuzumab” value (HER2 [2]; EFM-192C) was “Increased”, the “disitamab internalization as compared to trastuzumab” value (HER2 [2]; HCC-202) was “Increased” and the “disitamab internalization as compared to trastuzumab” value (HER2 [2]; NCI-N87) was “Increased”. For the same compound, the “disitamab internalization as compared to trastuzumab” value (HER2 [2]; OE19) was “Increased”, the “disitamab internalization as compared to trastuzumab” value (HER2 [2]; RERF-GC-1B) was “Increased” and the “disitamab internalization as compared to trastuzumab” value (HER2 [2]; SK-BR-3) was “Increased”. The “disitamab internalization in the presence of tucatinib compared to disitamab alone” value (HER2 [3]; EFM-192C) was “increased”, the “disitamab internalization in the presence of tucatinib compared to disitamab alone” value (HER2 [3]; NCI-N87) was “increased” and the “disitamab internalization in the presence of tucatinib compared to disitamab alone” value (HER2 [3]; OE19) was “increased”. For the same compound, the “disitamab internalization in the presence of tucatinib compared to disitamab alone” value (HER2 [3]; SK-BR-3) was “increased”.
In the case of trastuzumab emtansine [T-DM1], the “overall response (either complete or partial response)” value [4] is given as 34.2% and the “subjects alive without disease progression at 12 months” value [4] is given as 34.1%.
